Each binder was assayed against T1, lantibiotic subtilomycin (Bacillus subtilis BSn5, lantibiotic; ApnB carries out the essential dehydration reaction of its biosynthesis; the modified residues are not listed) (assay: MST; protein labelled with Cy5-NHS ester at fixed concentration, serial 2x dilutions of unlabelled subtilomycin (1 mM set as highest; 500 μM highest final in the legend); PBS pH 8.0; MST power 20%, LED power 60%; Monolith NT.115; constants called ambiguous, based on total subtilomycin concentration). Conditions: both partners purified.
T1 construct: subtilomycin, the lantibiotic made from the structural peptide encoded by apnA of Bacillus subtilis BSn5; exact molecular weight 3234.36 Da; Purified subtilomycin holds oligomers (trimers, tetramers, pentamers); source: B. subtilis BSn5 ∆hag mutant, 30% ammonium sulfate precipitate of culture supernatant, purified by prep-HPLC; also native in Apn5 (30% ammonium sulfate precipitate of BSn5 culture …)

| Binder | Kd [µM] |
| --- | --- |
| EKLSSGLRINRAGDDAAGLAIS [flg22 (Bs), synthetic flg22 peptide of B. subtilis Hag] | 169 ± 10.4 |
| 6× His-tagged Hag protein (natural protein, labelled with Cy5-NHS ester (in the MST assay only)) not shown | 18.8 ± 4.15 |
| ∆Hag (flg22), Hag with the flg22 region deleted (domain or fragment) not shown | 66.4 ± 9.11 |

From publication PMC6787100, “Endophyte Bacillus subtilis evade plant defense by producing lantibiotic subtilomycin to mask self-produced flagellin” (Communications Biology, 2019)
